For the assay, the target named is VCAP-102 capsid (adeno-associated virus 9) (UniProt Q6JC40). Kind of assay: SPR. On the technique in general: SPR reads the build-up and loss of mass on a sensor chip optically.

As a reminder, the Kd is the constant that tells how readily two partners part at equilibrium. Low values mean tighter binding, high ones weaker binding.

B1: His-tagged human ALPL (recombinant) (receptor)
chain: LVPEKEKDPKYWRDQAQETLKYALELQKLNTNVAKNVIMFLGDGMGVSTVTAARILKGQLHHNPGEETRLEMDKFPFVALSKTYNTNAQVPDSAGTATAYLCGVKANEGTVGVSAATERSRCNTTQGNEVTSILRWAKDAGKSVGIVTTTRVNHATPSAAYAHSADRDWYSDNEMPPEALSQGCKDIAYQLMHNIRDIDVIMGGGRKYMYPKNKTDVEYESDEKARGTRLDGLDLVDTWKSFKPRYKHSHFIWNRTELLTLDPHNVDYLLGLFEPGDMQYELNRNNVTDPSLSEMVVVAIQILRKNPKGFFLLVEGGRIDHGHHEGKAKQALHEAVEMDRAIGQAGSLTSSEDTLTVVTADHSHVFTFGGYTPRGNSIFGLAPMLSDTDKKPFTAILYGNGPGYKVVGGERENVSMVDYAHNNYQAQSAVPLRHETHGGEDVAVFSKGPMAHLLHGVHEQNYVPHVMAYAACIGANLGHCAPAS
The molecule B1 registered a Kd of 20 nM.

For the origin of these results see article doi:10.1101/2024.03.12.584703.
